This passage reports binding result and Kd results from article PMC5291263.

For data set [1], the target named is T1, GB1-SRSF1 RRM2 WT (pseudo-RRM) (human, UniProt Q07955 107-203). Kind of data set: NMR.
Data set [2] deals with T1, GB1-SRSF1 RRM2 WT (pseudo-RRM). In words: ITC.
In a further data set the target is GB1-SRSF1 RRM2 R142A (human, UniProt Q07955 107-203, R142A). In words: ITC.
GB1-SRSF1 RRM2 R142A, sequence (Q07955 107-203 R142A): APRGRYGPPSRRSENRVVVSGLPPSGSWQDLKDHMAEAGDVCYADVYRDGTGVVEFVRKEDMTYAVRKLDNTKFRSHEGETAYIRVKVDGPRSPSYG

T1 sequence (Q07955 107-203): as the sequence (Q07955 107-203 R142A) above, with A36R counted along it

For UGAAGGAC (ssRNA) [5'-UGAAGGAC-3' RNA], the binding result in data set [1] is listed as “binds”. As for AGGAC (ssRNA) [5'-AGGAC-3' RNA], the Kd in data set [2] stood at 1 µM; with GB1-SRSF1 RRM2 R142A, 7 µM.
